These results are taken from patent publication US6774212 (Bristol-Myers Squibb, dated 2004).

The test deals with T1, HCV NS3 protease catalytic domain (amino acids 1 to 192), genotype 1a (Hepatitis C virus, genotype 1a, UniProt P26664 1027-1218).
T1 construct: domain: NS3 protease catalytic domain (amino acids 1 to 192); Expressed in E. coli BL21(DE3) and purified to >95%; also called HCV NS3 1a protease; Hepatitis C Virus NS3 protease
Kind of test: active-site titration of NS3 protease; linear plots of Activity vs. [inhibitor], protease concentration from the x-intercept.

Square brackets hold non-standard residues; d marks the D form. Ends that are not written are not given here. * marks the point of attachment. boroAlg = alpha-aminoboronic acid analogue of L-2-amino-4-pentenoic acid (1-amino-3-butenylboronic acid, -B(OH)2 in place of -COOH), C=CC[C@H](N*)B(O)O

T1 sequence (P26664 1027-1218): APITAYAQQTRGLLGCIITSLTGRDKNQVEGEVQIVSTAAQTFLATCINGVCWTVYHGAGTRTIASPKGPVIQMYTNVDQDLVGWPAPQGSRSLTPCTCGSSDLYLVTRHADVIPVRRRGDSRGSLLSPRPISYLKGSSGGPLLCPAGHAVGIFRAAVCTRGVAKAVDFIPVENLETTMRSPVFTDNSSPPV

B1: H-Asp-Glu-Val-Val-Pro-boroAlg-OH (peptide)
peptide: H-DEVVP[boroAlg]
notes: Peptide boronic acid used as titrant to determine the protease concentration
In the case of B1, the binding result was “binds”.
